{"source": "paper PMC2756145", "test_in_all_cases": "filter binding", "key": {"Pot1-DBD_S123A": {"target": "T1, Pot1-DBD_S123A (Schizosaccharomyces pombe, UniProt O13988 1-389, S123A)", "T1 sequence": "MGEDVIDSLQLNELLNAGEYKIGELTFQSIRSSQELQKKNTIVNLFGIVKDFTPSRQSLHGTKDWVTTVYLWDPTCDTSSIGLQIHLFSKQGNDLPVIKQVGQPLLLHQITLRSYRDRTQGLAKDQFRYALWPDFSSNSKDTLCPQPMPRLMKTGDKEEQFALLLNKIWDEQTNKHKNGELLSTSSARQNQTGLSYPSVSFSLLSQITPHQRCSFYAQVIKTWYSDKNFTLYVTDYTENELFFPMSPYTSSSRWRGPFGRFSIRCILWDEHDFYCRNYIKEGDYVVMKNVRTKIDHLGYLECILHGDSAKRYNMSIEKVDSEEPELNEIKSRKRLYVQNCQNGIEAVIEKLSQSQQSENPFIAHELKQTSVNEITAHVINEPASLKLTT"}, "Pot1-DBD": {"target": "T2, Pot1-DBD (Schizosaccharomyces pombe, UniProt O13988 1-389)", "T2 sequence": "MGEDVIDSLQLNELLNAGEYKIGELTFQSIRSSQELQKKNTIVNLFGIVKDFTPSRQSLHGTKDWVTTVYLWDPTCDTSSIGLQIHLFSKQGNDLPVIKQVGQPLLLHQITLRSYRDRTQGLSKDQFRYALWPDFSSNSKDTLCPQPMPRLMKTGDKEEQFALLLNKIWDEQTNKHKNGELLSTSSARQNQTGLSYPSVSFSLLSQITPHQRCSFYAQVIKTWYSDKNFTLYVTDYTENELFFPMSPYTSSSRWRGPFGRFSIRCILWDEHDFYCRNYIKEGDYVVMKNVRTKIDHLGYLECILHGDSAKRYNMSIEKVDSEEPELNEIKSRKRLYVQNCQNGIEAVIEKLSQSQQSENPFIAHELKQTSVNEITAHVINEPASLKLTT"}, "Pot1-DBD_V97A": {"target": "T3, Pot1-DBD_V97A (Schizosaccharomyces pombe, UniProt O13988 1-389, V97A)", "T3 sequence": "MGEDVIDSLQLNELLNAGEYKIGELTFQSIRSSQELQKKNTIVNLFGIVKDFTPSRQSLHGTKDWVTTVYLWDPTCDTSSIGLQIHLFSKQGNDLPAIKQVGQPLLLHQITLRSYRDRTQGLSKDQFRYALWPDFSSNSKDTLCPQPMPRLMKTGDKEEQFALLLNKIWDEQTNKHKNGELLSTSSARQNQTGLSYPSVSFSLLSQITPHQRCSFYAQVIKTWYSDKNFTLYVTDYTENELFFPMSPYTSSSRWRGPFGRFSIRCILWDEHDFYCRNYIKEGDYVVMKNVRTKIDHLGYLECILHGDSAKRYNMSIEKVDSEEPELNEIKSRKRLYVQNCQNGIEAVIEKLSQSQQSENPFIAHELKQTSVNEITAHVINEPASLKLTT"}}, "data": [{"binder": "GGTTACGGTTAC (ssDNA)", "note": "[12mer]", "values": [{"measurement": "Kd", "setting": "Pot1-DBD_S123A", "value": "30 ± 2", "unit": "nM"}, {"measurement": "Kd", "setting": "Pot1-DBD", "value": "1 ± 0.1", "unit": "nM"}, {"measurement": "Kd", "setting": "Pot1-DBD_V97A", "value": "10 ± 1", "unit": "nM"}]}]}
